Values of other authors in paper PMC9887155, “Kinetics of cone specific G-protein signaling in avian photoreceptor cells” (Frontiers in Molecular Neuroscience, 2023).
pKd: −log10 of the molar value.

Target: Gtα (Bos taurus) (UniProt P04695)
Test: SPR

rhodopsin (dark-adapted), sequence (P02699 whole entry): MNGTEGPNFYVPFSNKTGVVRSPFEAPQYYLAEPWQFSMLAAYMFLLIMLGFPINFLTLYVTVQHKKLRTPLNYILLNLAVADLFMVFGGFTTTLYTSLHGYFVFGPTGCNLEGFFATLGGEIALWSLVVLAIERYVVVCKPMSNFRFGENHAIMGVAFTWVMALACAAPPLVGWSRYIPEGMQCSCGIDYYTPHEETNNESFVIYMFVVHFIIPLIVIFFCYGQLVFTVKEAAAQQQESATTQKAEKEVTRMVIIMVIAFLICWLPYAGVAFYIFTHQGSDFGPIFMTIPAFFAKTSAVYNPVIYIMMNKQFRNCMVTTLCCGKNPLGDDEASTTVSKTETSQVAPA
Gtα (Bos taurus), sequence (P04695 2-350): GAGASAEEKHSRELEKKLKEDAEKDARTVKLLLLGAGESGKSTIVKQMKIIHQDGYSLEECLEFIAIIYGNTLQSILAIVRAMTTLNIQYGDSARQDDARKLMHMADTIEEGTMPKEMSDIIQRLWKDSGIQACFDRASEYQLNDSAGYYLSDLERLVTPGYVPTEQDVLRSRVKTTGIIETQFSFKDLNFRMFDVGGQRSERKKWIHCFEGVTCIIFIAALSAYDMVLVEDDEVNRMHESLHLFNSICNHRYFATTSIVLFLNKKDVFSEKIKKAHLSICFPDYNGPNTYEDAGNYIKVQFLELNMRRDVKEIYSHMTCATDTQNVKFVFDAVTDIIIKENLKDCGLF

- pKd: 6.44
Substance: rhodopsin (dark-adapted) (from UniProt P02699)
